pIC50: −log10 of the molar value.
Target: SARS-CoV-2 Spike protein S1 (SARS-CoV-2) (UniProt P0DTC2)
Assay: BLI

peptide … (sequence 24-42 of the ACE2 α1 domain)
pIC50: 6.15
peptide concentration of half effect on koff of the S1-ACE2 complex: 0.6 µM

Reference: doi:10.1101/2020.12.29.424682
